Measurements taken from patent US20220317121A1.

Legend:
Assay in all cases: line blot with purified recombinant antigen
H8-CD2BP2[human] (human) = H8-CD2BP2[human] (human) (UniProt O95400)
[1] = target: H8-TJP1[human](aa1-575) (human) (UniProt Q07157)
[2] = target: NVL[human]-IF1-H6 (human) (UniProt O15381)
Chain of UniProt O15381 (O15381 other isoform, or with tags, fused parts or gaps limits assumed): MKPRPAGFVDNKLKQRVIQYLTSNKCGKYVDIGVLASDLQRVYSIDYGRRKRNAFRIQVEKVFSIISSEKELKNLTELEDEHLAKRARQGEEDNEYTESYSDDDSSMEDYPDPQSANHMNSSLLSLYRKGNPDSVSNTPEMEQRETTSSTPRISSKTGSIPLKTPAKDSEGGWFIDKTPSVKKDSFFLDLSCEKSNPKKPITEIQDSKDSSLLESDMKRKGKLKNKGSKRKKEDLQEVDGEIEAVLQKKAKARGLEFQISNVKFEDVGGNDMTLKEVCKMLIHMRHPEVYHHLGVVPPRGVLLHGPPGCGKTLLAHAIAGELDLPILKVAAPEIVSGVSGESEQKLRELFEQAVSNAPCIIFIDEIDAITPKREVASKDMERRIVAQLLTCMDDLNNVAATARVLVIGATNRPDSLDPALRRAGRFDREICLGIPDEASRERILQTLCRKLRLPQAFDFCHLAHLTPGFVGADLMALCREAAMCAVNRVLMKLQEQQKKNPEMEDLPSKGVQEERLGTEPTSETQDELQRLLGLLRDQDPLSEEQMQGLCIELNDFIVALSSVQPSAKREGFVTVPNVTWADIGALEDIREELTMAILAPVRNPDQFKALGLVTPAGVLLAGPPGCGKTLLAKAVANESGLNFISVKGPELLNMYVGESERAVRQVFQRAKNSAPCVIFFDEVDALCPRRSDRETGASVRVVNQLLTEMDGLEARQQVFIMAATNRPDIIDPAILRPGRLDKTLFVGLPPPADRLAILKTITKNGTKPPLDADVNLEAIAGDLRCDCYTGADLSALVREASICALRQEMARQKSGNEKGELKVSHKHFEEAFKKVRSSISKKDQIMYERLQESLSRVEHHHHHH

Chain of UniProt Q07157 (Q07157 other isoform, or with tags, fused parts or gaps limits assumed): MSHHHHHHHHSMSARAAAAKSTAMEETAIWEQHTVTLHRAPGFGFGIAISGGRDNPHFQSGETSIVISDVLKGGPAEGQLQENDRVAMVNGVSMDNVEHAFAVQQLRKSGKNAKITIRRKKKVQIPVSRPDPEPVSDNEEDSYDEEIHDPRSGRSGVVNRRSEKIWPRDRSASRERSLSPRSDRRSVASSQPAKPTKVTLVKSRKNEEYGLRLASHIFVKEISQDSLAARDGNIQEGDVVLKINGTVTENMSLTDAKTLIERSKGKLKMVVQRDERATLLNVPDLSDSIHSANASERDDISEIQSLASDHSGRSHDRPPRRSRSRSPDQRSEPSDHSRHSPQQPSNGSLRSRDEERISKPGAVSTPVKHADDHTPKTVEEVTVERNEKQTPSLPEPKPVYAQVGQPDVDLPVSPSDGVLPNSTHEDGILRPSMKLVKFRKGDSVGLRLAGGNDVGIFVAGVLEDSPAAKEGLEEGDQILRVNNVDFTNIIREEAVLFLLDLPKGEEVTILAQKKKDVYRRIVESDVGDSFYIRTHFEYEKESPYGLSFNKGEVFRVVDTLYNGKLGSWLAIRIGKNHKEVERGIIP
Chain of UniProt O95400 (O95400 other isoform, or with tags, fused parts or gaps limits assumed): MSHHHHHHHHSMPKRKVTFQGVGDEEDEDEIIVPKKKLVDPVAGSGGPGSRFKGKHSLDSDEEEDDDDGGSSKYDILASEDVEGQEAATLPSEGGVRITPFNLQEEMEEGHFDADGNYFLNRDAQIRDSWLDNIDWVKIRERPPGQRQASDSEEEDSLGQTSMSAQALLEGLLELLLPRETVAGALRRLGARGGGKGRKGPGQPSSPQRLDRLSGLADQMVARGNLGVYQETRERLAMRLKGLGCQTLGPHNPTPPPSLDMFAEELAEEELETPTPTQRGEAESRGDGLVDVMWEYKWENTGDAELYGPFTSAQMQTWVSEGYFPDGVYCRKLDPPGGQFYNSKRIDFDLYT

anti-His-tag-AP (monoclonal anti-His-AP antibody produced in mouse, A5588, Sigma-Aldrich)
band intensity (H8-CD2BP2[human] (human)): 111 | band intensity [1]: 101 | band intensity [2]: 15
